This assay has as its target T1, EBOV GP1,2 stalk–MPER epitope peptide (aa 626–640) (Ebola virus (EBOV), UniProt Q05320).
T1 chain: IIHDFVDKTLPDQGD
Put plainly: crystal structure. The following applies: both partners purified.

B1: 3A6 Fab (Fab, V domains shown)
VH: EVQLLESGGGLVKPGGSLRLSCAASGFTFNEYMMNWVRQPPGKGLEWVSSISGTSTYINYADSVKGRFTISRDNAKNSLYLQMNSLRSDDTAMYYCARGSTGGYWGQGTLITVSS
VL: DIVMTQTPLSSAVTLGQPASISCRSSQRLVHSDGNTYLSWLHQRPGQPPRLLIYKVSLRFSGVPDRFSGSGAGTDFTLKISRVEAEDVGIYYCMQATQFPLTFGGGTKVEIK
On to B1, for which the binding result is “binds”.

Values taken from publication PMC10775387 (Research Square, 2023).
